Article PMC10850970, “Characterization of N-glycosylation and its functional role in SIDT1-Mediated RNA uptake”

Experiments:
SIDT1 ECD = biological target: T1, SIDT1 ECD (Homo sapiens, UniProt Q9NXL6 23-310); assay: EMSA; pH 5.5; EMSA: 40 mM Tris-acetate pH 5.5, 100 mM NaCl, 2.5 mM EDTA, 5% glycerol, RT 30 min, 2.5 uM RNA; MST: 25 mM MES pH 5.5, 100 mM NaCl, 0.05% Tween-20, 25 C, 5 nM labeled protein; details: protein: recombinant; C-terminal 6xHis; label: 5'-FAM; single strand
T1 sequence: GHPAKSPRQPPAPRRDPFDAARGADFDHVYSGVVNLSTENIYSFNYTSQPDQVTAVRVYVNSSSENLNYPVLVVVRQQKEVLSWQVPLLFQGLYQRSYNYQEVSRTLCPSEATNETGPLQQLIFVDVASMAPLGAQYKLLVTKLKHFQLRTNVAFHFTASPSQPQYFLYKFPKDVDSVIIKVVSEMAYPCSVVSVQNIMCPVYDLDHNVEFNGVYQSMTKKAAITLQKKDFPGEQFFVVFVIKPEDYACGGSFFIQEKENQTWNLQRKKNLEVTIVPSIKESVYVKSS

SIDT1 ECD-Fc = biological target: T2, SIDT1 ECD-Fc (Homo sapiens, UniProt Q9NXL6 23-310); assay: EMSA; pH 5.5; legend says FAM-labeled RNA; EMSA: 40 mM Tris-acetate pH 5.5, 100 mM NaCl, 2.5 mM EDTA, 5% glycerol, RT 30 min, 2.5 uM RNA; MST: 25 mM MES pH 5.5, 100 mM NaCl, 0.05% Tween-20, 25 C, 5 nM labeled protein; details: protein: recombinant; tags: C-terminal Fc; chain copies: 2; label: 5'-FAM; single strand
T2 sequence: T1 sequence

[1] = Amplex Red phospholipase assay; details: glycan lost; control: untreated full-length SIDT1
[2] = precipitation after deglycosylation; details: glycan lost; control: untreated purified SIDT1ECD
[3] = Western blot of cells and medium, HEK293F; details: glycan lost; control: WT SIDT1ECD
[4] = differential scanning fluorometry (Tycho); details: glycan changed form; control: SIDT1ECD expressed without kifunensine, same pH
[5] = 0-4 h incubation at pH 3.5, SDS-PAGE; details: glycan changed form; control: SIDT1ECD expressed without kifunensine

## UCGCUUGGUGCAGAUCGGGAC (ssRNA) [FAM-ssRNA 21 nt]
SIDT1 ECD
  binding result: binds
SIDT1 ECD-Fc
  binding result: binds

B1: SIDT1: PNGase F (protein)
parent chain: MRGCLRLALLCALPWLLLAASPGHPAKSPRQPPAPRRDPFDAARGADFDHVYSGVVNLSTENIYSFNYTSQPDQVTAVRVYVNSSSENLNYPVLVVVRQQKEVLSWQVPLLFQGLYQRSYNYQEVSRTLCPSEATNETGPLQQLIFVDVASMAPLGAQYKLLVTKLKHFQLRTNVAFHFTASPSQPQYFLYKFPKDVDSVIIKVVSEMAYPCSVVSVQNIMCPVYDLDHNVEFNGVYQSMTKKAAITLQKKDFPGEQFFVVFVIKPEDYACGGSFFIQEKENQTWNLQRKKNLEVTIVPSIKESVYVKSSLFSVFIFLSFYLGCLLVGFVHYLRFQRKSIDGSFGSNDGSGNMVASHPIAASTPEGSNYGTIDESSSSPGRQMSSSDGGPPGQSDTDSSVEESDFDTMPDIESDKNIIRTKMFLYLSDLSRKDRRIVSKKYKIYFWNIITIAVFYALPVIQLVITYQTVVNVTGNQDICYYNFLCAHPLGVLSAFNNILSNLGHVLLGFLFLLIVLRRDILHRRALEAKDIFAVEYGIPKHFGLFYAMGIALMMEGVLSACYHVCPNYSNFQFDTSFMYMIAGLCMLKLYQTRHPDINASAYSAYASFAVVIMVTVLGVVFGKNDVWFWVIFSAIHVLASLALSTQIYYMGRFKIDLGIFRRAAMVFYTDCIQQCSRPLYMDRMVLLVVGNLVNWSFALFGLIYRPRDFASYMLGIFICNLLLYLAFYIIMKLRSSEKVLPVPLFCIVATAVMWAAALYFFFQNLSSWEGTPAESREKNRECILLDFFDDHDIWHFLSATALFFSFLVLLTLDDDLDVVRRDQIPVF
[1]
  enzymatic_activity: no change
[2]
  stability_or_folding: decreases

B2: SIDT1: SIDT1ECD mutant (all N to Q) (protein)
parent chain: B1 parent chain
[3]
  expression_or_secretion: decreases

B3: SIDT1: N67Q (protein)
parent chain: B1 parent chain
[3]
  expression_or_secretion: decreases

B4: SIDT1: kifunensine, pH 3.5 (protein)
parent chain: B1 parent chain
[4]
  stability_or_folding, Tm: decreases, decrease of 5.4 vs 55.1 (pH 7.5), 60.5 (pH 5.5), 61.1 (pH 3.5)

B5: SIDT1: N83Q (protein)
parent chain: B1 parent chain
[3]
  expression_or_secretion: no change

B6: SIDT1: N136Q (protein)
parent chain: B1 parent chain
[3]
  expression_or_secretion: decreases

B7: SIDT1: N282Q (protein)
parent chain: B1 parent chain
[3]
  expression_or_secretion: no change

B8: SIDT1: kifunensine, pH 7.5 (protein)
parent chain: B1 parent chain
[4]
  stability_or_folding, Tm: decreases, decrease of 4.7 vs 55.1 (pH 7.5), 60.5 (pH 5.5), 61.1 (pH 3.5)

B9: SIDT1: N57Q (protein)
parent chain: B1 parent chain
[3]
  expression_or_secretion: decreases

B10: SIDT1: kifunensine, pH 5.5 (protein)
parent chain: B1 parent chain
[4]
  stability_or_folding, Tm: decreases, decrease of 1.7 vs 55.1 (pH 7.5), 60.5 (pH 5.5), 61.1 (pH 3.5)

B11: SIDT1: kifunensine (protein)
parent chain: B1 parent chain
[5]
  degradation_or_half_life: increases
